Tests used:
transferrin receptor = target: T1, transferrin receptor (Cricetulus griseus, UniProt Q07891); assay: Ligand binding and displacement assay on membrane-coated particles (fluorescence microscopy); parameters: species or system Chinese Hamster
T1 construct: present endogenously in membrane-coated particles derived from CHO cell membranes; endogenous in cells; host or cells: CHO cell membranes deposited on silica microspheres
Method: (§1) The binding of transferrin to its receptor was studied for ligand/receptor interactions, present endogenously in membrane-coated particles derived from CHO cell membranes (Example 1). Freshly-prepared membrane-coated particles were resuspended in 1 ml of binding buffer (10 mM Tris-HCl pH 7.4, 100 mM NaCl). Beads were subsequently pelleted and resuspended in 1 ml of blocking buffer (0.1% w/v casein in binding buffer), and incubated at room temperature for 15 minutes with rotation. Beads were pelleted and resuspended in 980 μL of binding buffer. At this time, any inhibitors or antagonists (e.g. excess of unlabeled transferrin) could have been added for a pre-incubation step. ALEXA FLUOR® 488-conjugated human holotransferrin was added to the membrane-coated particles at a final concentration of 10 μg/ml, followed by incubation at room temperature for 15 minutes with rotation. Following the incubation with transferrin, the beads were washed twice with binding buffer in preparation for viewing using fluorescence microscopy (same microscope apparatus as described in Example 1). The accessibility of membrane proteins (in this case the transferrin receptor) to interact with various ligands and test agents (in this case transferrin) is shown by the results (see FIGS. 2A-2E).

[1] = Labeled ligand binding to bare silica beads (control for non-specific binding); conditions: silica beads devoid of membranes; FIG. 2C
Method: as §1

T1 sequence (Q07891 whole entry): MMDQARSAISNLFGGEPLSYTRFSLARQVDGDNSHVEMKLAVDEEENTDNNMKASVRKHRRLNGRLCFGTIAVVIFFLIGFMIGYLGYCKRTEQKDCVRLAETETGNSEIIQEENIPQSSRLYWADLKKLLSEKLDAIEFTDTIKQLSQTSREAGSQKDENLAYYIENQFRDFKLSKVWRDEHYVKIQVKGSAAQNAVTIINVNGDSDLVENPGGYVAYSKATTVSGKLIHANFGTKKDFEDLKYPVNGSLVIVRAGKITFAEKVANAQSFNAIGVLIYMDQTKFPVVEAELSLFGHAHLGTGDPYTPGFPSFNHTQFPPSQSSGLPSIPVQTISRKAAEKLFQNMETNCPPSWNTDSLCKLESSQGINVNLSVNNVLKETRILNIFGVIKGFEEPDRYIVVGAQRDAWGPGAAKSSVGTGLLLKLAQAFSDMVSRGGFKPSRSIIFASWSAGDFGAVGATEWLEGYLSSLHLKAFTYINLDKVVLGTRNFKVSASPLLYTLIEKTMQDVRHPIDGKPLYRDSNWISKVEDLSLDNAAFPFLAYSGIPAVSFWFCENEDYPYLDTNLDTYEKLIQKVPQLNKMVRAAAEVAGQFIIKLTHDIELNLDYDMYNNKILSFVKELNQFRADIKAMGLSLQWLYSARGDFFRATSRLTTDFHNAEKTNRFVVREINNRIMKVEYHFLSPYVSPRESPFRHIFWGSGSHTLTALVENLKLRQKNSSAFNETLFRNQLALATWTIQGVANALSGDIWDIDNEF

competition of labeled transferrin binding (transferrin receptor; 100-fold molar excess of unlabeled transferrin, CHO membrane-coated particles, FIG. 2B)	interaction of fluorescently-labeled transferrin with bare silica [1]	binding of fluorescently-labeled transferrin to the membrane-coated particles (transferrin receptor; endogenously-expressed transferrin receptor, CHO cell membranes on silica beads, 10 μg/ml, room temperature, 15 minutes, FIG. 2A)	Substance
readily competed away			unlabeled transferrin: unlabeled transferrin used in excess as competitor of labeled transferrin binding
	does not interact appreciably	binds efficiently	fluorescently-labeled transferrin: ALEXA FLUOR® 488-conjugated human holotransferrin, labeled ligand of the transferrin receptor

Reference: patent publication US8962344B2, “Membrane-coated particles” (Synamem Corporation, priority 2008, dated 2015)
